{
  "source": "paper doi:10.1101/580076",
  "molecular_target": "HAdV-D26 fiber-knob protein (human adenovirus D serotype 26 (HAdV-D26))",
  "experiment": "crystal structure",
  "data": [
    {"substance": "HAdV-D26 fiber-knob protein (domain or fragment)", "values": [
      {"measurement": "stoichiometry N", "value": 3}
    ]}
  ]
}
